Assay results published in patent US20190169232A1.

Tests used:
[1] = target: C1q purified from pooled normal human sera (human) (UniProt P02746); assay: SPR kinetics, C1q immobilised on a CM5 chip, HMGB1 redox form as analyte in a concentration series, 1:1 fit
[2] = target: LAIR-1 on human monocytes (human) (UniProt Q6GTX8); assay: co-immunoprecipitation from human monocytes, IP anti-LAIR-1, blot anti-SHP-1; cells without C1q and without HMGB1
[3] = target: LAIR-1 on human monocytes (human) (UniProt Q6GTX8); assay: co-immunoprecipitation from human monocytes, IP anti-LAIR-1, blot anti-SHP-1; cells treated with C1q alone
[4] = target: LAIR-1 on human monocytes (human) (UniProt Q6GTX8); assay: co-immunoprecipitation from human monocytes, IP anti-LAIR-1, blot anti-SHP-1; cells treated with C1q and HMGB1
[5] = target: LAIR-1 on human monocytes (human) (UniProt Q6GTX8); assay: co-immunoprecipitation from human monocytes, IP anti-LAIR-1, blot anti-SHP-1; cells treated with HMGB1 alone

Chain of LAIR-1 on human monocytes (human) (Q6GTX8 22-287): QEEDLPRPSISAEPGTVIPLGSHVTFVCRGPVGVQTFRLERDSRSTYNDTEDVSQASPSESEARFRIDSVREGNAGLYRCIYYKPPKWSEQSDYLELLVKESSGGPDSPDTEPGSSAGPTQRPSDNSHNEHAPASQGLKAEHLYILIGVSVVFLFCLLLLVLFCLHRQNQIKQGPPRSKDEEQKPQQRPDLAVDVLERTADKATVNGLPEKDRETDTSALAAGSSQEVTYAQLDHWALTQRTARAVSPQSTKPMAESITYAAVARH
Chain of C1q purified from pooled normal human sera (human) (chain, as listed by the source, chain 1 of 3): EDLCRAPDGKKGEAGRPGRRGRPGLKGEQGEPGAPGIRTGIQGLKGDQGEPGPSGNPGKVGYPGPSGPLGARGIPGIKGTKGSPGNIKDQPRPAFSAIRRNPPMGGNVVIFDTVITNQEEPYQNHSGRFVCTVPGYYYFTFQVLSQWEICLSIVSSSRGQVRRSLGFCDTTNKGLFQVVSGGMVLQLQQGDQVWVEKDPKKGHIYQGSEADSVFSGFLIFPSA
Chain of C1q purified from pooled normal human sera (human) (P02746 28-253, chain 2 of 3): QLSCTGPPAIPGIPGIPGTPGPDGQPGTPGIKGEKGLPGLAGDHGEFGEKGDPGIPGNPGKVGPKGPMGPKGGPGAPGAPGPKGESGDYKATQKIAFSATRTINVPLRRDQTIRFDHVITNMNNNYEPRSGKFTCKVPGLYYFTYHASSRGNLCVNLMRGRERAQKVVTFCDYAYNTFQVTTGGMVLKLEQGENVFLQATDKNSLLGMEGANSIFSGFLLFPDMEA
Chain of C1q purified from pooled normal human sera (human) (P02747 29-245, chain 3 of 3): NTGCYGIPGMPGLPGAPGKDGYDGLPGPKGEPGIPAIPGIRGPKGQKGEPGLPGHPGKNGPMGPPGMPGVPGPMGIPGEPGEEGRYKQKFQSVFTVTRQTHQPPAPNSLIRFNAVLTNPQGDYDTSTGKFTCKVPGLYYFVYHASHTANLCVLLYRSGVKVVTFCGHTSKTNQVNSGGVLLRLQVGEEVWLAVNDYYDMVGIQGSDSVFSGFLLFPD
Chain of Oxidized HMGB1 (ligand) (P09429 whole entry): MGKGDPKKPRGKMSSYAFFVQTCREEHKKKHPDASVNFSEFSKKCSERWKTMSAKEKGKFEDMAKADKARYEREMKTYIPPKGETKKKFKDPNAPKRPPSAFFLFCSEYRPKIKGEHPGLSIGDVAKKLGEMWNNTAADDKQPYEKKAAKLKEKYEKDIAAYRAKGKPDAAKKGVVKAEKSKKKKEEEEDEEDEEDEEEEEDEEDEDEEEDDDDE

Row | Kd [1] [nM] | signal intensity ratio (number under the SHP-1 blot) [2] | signal intensity ratio (number under the SHP-1 blot) [3] | signal intensity ratio (number under the SHP-1 blot) [4] | signal intensity ratio (number under the SHP-1 blot) [5] | Substance
1 | 1560 | – | – | – | – | Oxidized HMGB1 (ligand)
2 | – | 1 | 2.6 | 4.4 | 0.7 | SHP-1 (from UniProt P29350 1-595)
